Experimental data taken from paper PMC6028960, “The kinetochore proteins CENP-E and CENP-F directly and specifically interact with distinct BUB mitotic checkpoint Ser/Thr kinases” (The Journal of Biological Chemistry, 2018).

B1: BUBR1 pseudokinase domain (KinD, residues 705–1050) (domain or fragment, human, UniProt O60566 705-1050, looked up)
chain: EKLELTNETSENPTQSPWCSQYRRQLLKSLPELSASAELCIEDRPMPKLEIEKEIELGNEDYCIKREYLICEDYKLFWVAPRNSAELTVIKVSSQPVPWDFYINLKLKERLNEDFDHFCSCYQYQDGCIVWHQYINCFTLQDLLQHSEYITHEITVLIIYNLLTIVEMLHKAEIVHGDLSPRCLILRNRIHDPYDCNKNNQALKIVDFSYSVDLRVQLDVFTLSGFRTVQILEGQKILANCSSPYQVDLFGIADLAHLLLFKEHLQVFWDGSFWKLSQNISELKDGELWNKFFVRILNANDEATVSVLGELAAEMNGVFDTTFQSHLNKALWKVGKLTSPGALLFQ
notes: human BUBR1, pseudokinase domain, residues 705-1050; also called BUBR1 pseudo-kinase domain (KinD) construct; BUBR1 KinD
B2: mCherry-CENP-F(2866–2990) (domain or fragment, human, UniProt P49454 2770-2894, looked up)
chain: LKKTKMDNLKYVNQLKKENERAQGKMKLLIKSCKQLEEEKEILQKELSQLQAAQEKQKTGTVMDTKVDELTTEIKELKETLEEKTKEADEYLDKYCSLLISHEKLEKAKEMLETQVAHLCSQQSK
notes: Dimer by sedimentation velocity AUC; source: E. coli BL21 (DE3) RP plus, purified (HisTrap, Superdex 75 SEC); not shown: mCherry, N-terminal, kept
B3: mCherry-CENP-F(2922–2990) (domain or fragment, human, UniProt P49454 2826-2894, looked up)
chain: QKTGTVMDTKVDELTTEIKELKETLEEKTKEADEYLDKYCSLLISHEKLEKAKEMLETQVAHLCSQQSK
notes: as for B2
B4: eGFP-CENP-E^2070-C (domain or fragment, human, UniProt Q02224 2070-2701, looked up)
chain: RQNHQVKPEKRLLSDGQQHLTESLREKCSRIKELLKRYSEMDDHYECLNRLSLDLEKEIEFQKELSMRVKANLSLPYLQTKHIEKLFTANQRCSMEFHRIMKKLKYVLSYVTKIKEEQHESINKFEMDFIDEVEKQKELLIKIQHLQQDCDVPSRELRDLKLNQNMDLHIEEILKDFSESEFPSIKTEFQQVLSNRKEMTQFLEEWLNTRFDIEKLKNGIQKENDRICQVNNFFNNRIIAIMNESTEFEERSATISKEWEQDLKSLKEKNEKLFKNYQTLKTSLASGAQVNPTTQDNKNPHVTSRATQLTTEKIRELENSLHEAKESAMHKESKIIKMQKELEVTNDIIAKLQAKVHESNKCLEKTKETIQVLQDKVALGAKPYKEEIEDLKMKLVKIDLEKMKNAKEFEKEISATKATVEYQKEVIRLLRENLRRSQQAQDTSVISEHTDPQPSNKPLTCGGGSGIVQNTKALILKSEHIRLEKEISKLKQQNEQLIKQKNELLSNNQHLSNEVKTWKERTLKREAHKQVTCENSPKSPKVTGTASKKKQITPSQCKERNLQDPVPKESPKSCFFDSRSKSLPSPHPVRYFDNSSLGLCPEVQNAGAESVDSQPGPWHASSGKDVPECKTQ
notes: codon-optimized cDNA; N-terminal PreScission-cleavable His6-eGFP tag from the pLIB-eGFP vector; source: insect cells (baculovirus made in Sf9, Tnao38 infected), purified (HisTrap, Superose 6 SEC); not shown: eGFP, N-terminal, kept

What was measured:
[1] = molecular target: B4; experiment: SEC; analytical SEC; 4 μM BUB1 or BUBR1 constructs or BUB1/BUB3 or BUBR1/BUB3 complexes mixed with 16 μM CENP-E or CENP-F proteins in 30 μl; 4 °C; Superose 6 5/150 or Superdex 75 5/150; 50 mM Hepes pH 8.0, 100 mM NaCl, 5% glycerol, 0.5 mM TCEP; fractions by SDS-PAGE; conditions: both partners purified
[2] = molecular target: the molecule itself; experiment: AUC; sedimentation velocity, 42,000 rpm, 20 °C; 6 μM mCherry-CENP-F fragment alone, scanned at 587 nm; self-association
[3] = molecular target: T1, BUBR1/BUB3 complex (human | , UniProt O60566 1-1050; O43684 1-328); experiment: SEC; analytical SEC; 4 μM BUB1 or BUBR1 constructs or BUB1/BUB3 or BUBR1/BUB3 complexes mixed with 16 μM CENP-E or CENP-F proteins in 30 μl; 4 °C; Superose 6 5/150 or Superdex 75 5/150; 50 mM Hepes pH 8.0, 100 mM NaCl, 5% glycerol, 0.5 mM TCEP; fractions by SDS-PAGE; conditions: both partners purified
T1 construct: human BUB1-related (BUBR1) mitotic checkpoint Ser/Thr kinase, full-length, co-expressed with BUB3; BUB3, co-expressed with BUBR1; also called dimeric BUBR1/BUB3 complex
T1 sequence (O43684 whole entry, one chain of several): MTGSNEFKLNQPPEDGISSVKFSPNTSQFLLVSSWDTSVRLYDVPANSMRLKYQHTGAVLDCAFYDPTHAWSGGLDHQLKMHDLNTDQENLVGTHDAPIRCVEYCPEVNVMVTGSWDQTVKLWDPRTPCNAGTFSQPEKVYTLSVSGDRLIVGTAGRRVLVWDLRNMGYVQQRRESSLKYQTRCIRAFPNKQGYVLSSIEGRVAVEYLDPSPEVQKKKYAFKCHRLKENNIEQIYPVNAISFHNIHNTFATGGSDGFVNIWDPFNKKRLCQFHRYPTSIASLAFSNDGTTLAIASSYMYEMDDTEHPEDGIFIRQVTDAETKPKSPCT

| Binder | stoichiometry N [2] | other results |
| --- | --- | --- |
| B1 | – | binding result [1]: binds |
| B2 | 2 | – |
| B3 | 2 | – |
| B4 | – | binding result [3]: binds |
